B1: SEC22B (parent)
chain: FPKKLAFAYLEDLHSEFDEQHGKK

Variants of: B1
Assay: protein stability index of a GFP-peptide fusion (GPS, HEK-293T) (PSI 1-6); higher = more stable
Settings: c terminus: a fixed tail appended
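Note: lentivirally expressed fusions sorted by FACS into six bins by GFP to DsRed ratio, PSI derived from sequencing read proportions per bin multiplied by bin number.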

| Variant | protein stability index |
| --- | --- |
| FPKKKAFAYLEDLHSEFDEQHGKK [L5K] | 2.85 |
| FPKKCAFAYLEDLHSEFDEQHGKK [L5C] | 1.66 |
| FPKKPAFAYLEDLHSEFDEQHGKK [L5P] | 1.77 |
| FPKKIAFAYLEDLHSEFDEQHGKK [L5I] | 2.98 |
| FPKKFAFAYLEDLHSEFDEQHGKK [L5F] | 2.17 |
| FPKKNAFAYLEDLHSEFDEQHGKK [L5N] | 2.65 |
| FPKKEAFAYLEDLHSEFDEQHGKK [L5E] | 3.56 |
| FPKKWAFAYLEDLHSEFDEQHGKK [L5W] | 1.59 |
| FPKKRAFAYLEDLHSEFDEQHGKK [L5R] | 2.65 |
| FPKKAAFAYLEDLHSEFDEQHGKK [L5A] | 2.15 |
| FPKKGAFAYLEDLHSEFDEQHGKK [L5G] | 2.41 |
| FPKKHAFAYLEDLHSEFDEQHGKK [L5H] | 1.95 |
| FPKKQAFAYLEDLHSEFDEQHGKK [L5Q] | 3.18 |
| FPKKVAFAYLEDLHSEFDEQHGKK [L5V] | 2.9 |
| FPKKYAFAYLEDLHSEFDEQHGKK [L5Y] | 2.52 |
| FPKKMAFAYLEDLHSEFDEQHGKK [L5M] | 1.84 |
| FPKKSAFAYLEDLHSEFDEQHGKK [L5S] | 2.64 |
| FPKKDAFAYLEDLHSEFDEQHGKK [L5D] | 3.26 |
| FPKKTAFAYLEDLHSEFDEQHGKK [L5T] | 3.02 |
| FPKKLAHAYLEDLHSEFDEQHGKK [F7H] | 3.42 |
| FPKKLAMAYLEDLHSEFDEQHGKK [F7M] | 2.53 |
| FPKKLAAAYLEDLHSEFDEQHGKK [F7A] | 3.63 |
| FPKKLANAYLEDLHSEFDEQHGKK [F7N] | 3.79 |
| FPKKLADAYLEDLHSEFDEQHGKK [F7D] | 3.98 |

| Variant | protein stability index |
| --- | --- |
| FPKKLARAYLEDLHSEFDEQHGKK [F7R] | 3.28 |
| FPKKLAPAYLEDLHSEFDEQHGKK [F7P] | 3.39 |
| FPKKLATAYLEDLHSEFDEQHGKK [F7T] | 3.33 |
| FPKKLALAYLEDLHSEFDEQHGKK [F7L] | 2.65 |
| FPKKLASAYLEDLHSEFDEQHGKK [F7S] | 3.8 |
| FPKKLAEAYLEDLHSEFDEQHGKK [F7E] | 4 |
| FPKKLAKAYLEDLHSEFDEQHGKK [F7K] | 3.8 |
| FPKKLAYAYLEDLHSEFDEQHGKK [F7Y] | 2.5 |
| FPKKLAIAYLEDLHSEFDEQHGKK [F7I] | 3.24 |
| FPKKLACAYLEDLHSEFDEQHGKK [F7C] | 3.47 |
| FPKKLAGAYLEDLHSEFDEQHGKK [F7G] | 3.8 |
| FPKKLAVAYLEDLHSEFDEQHGKK [F7V] | 2.67 |
| FPKKLAQAYLEDLHSEFDEQHGKK [F7Q] | 4.16 |
| FPKKLAWAYLEDLHSEFDEQHGKK [F7W] | 1.95 |
| FPKKLAFAYWEDLHSEFDEQHGKK [L10W] | 2.27 |
| FPKKLAFAYQEDLHSEFDEQHGKK [L10Q] | 3.39 |
| FPKKLAFAYTEDLHSEFDEQHGKK [L10T] | 3.16 |
| FPKKLAFAYCEDLHSEFDEQHGKK [L10C] | 2.21 |
| FPKKLAFAYDEDLHSEFDEQHGKK [L10D] | 3.56 |
| FPKKLAFAYAEDLHSEFDEQHGKK [L10A] | 2.47 |
| FPKKLAFAYSEDLHSEFDEQHGKK [L10S] | 3.15 |
| FPKKLAFAYEEDLHSEFDEQHGKK [L10E] | 3.35 |
| FPKKLAFAYMEDLHSEFDEQHGKK [L10M] | 2.43 |
| FPKKLAFAYNEDLHSEFDEQHGKK [L10N] | 3.33 |

| Variant | protein stability index |
| --- | --- |
| FPKKLAFAYYEDLHSEFDEQHGKK [L10Y] | 2.84 |
| FPKKLAFAYVEDLHSEFDEQHGKK [L10V] | 2.11 |
| FPKKLAFAYGEDLHSEFDEQHGKK [L10G] | 2.78 |
| FPKKLAFAYPEDLHSEFDEQHGKK [L10P] | 2.92 |
| FPKKLAFAYHEDLHSEFDEQHGKK [L10H] | 2.75 |
| FPKKLAFAYKEDLHSEFDEQHGKK [L10K] | 3.46 |
| FPKKLAFAYIEDLHSEFDEQHGKK [L10I] | 2.34 |
| FPKKLAFAYREDLHSEFDEQHGKK [L10R] | 2.75 |
| FPKKLAFAYFEDLHSEFDEQHGKK [L10F] | 2.31 |
| FLKKLAFAYLEDLHSEFDEQHGKK [P2L] | 1.68 |
| FYKKLAFAYLEDLHSEFDEQHGKK [P2Y] | 2.16 |
| FKKKLAFAYLEDLHSEFDEQHGKK [P2K] | 2.55 |
| FVKKLAFAYLEDLHSEFDEQHGKK [P2V] | 2.29 |
| FSKKLAFAYLEDLHSEFDEQHGKK [P2S] | 3.06 |
| FWKKLAFAYLEDLHSEFDEQHGKK [P2W] | 1.95 |
| FIKKLAFAYLEDLHSEFDEQHGKK [P2I] | 1.98 |
| FNKKLAFAYLEDLHSEFDEQHGKK [P2N] | 3.44 |
| FTKKLAFAYLEDLHSEFDEQHGKK [P2T] | 3.05 |
| FRKKLAFAYLEDLHSEFDEQHGKK [P2R] | 2.94 |
| FQKKLAFAYLEDLHSEFDEQHGKK [P2Q] | 2.88 |
| FGKKLAFAYLEDLHSEFDEQHGKK [P2G] | 3.38 |
| FHKKLAFAYLEDLHSEFDEQHGKK [P2H] | 2.17 |
| FMKKLAFAYLEDLHSEFDEQHGKK [P2M] | 3.04 |
| FPKKLAFAYLEALHSEFDEQHGKK [D12A] | 2.1 |

| Variant | protein stability index |
| --- | --- |
| FPKKLAFAYLECLHSEFDEQHGKK [D12C] | 1.95 |
| FPKKLAFAYLEFLHSEFDEQHGKK [D12F] | 1.97 |
| FPKKLAFAYLEELHSEFDEQHGKK [D12E] | 3.72 |
| FPSKLAFAYLEDLHSEFDEQHGKK [K3S] | 2.01 |
| FPAKLAFAYLEDLHSEFDEQHGKK [K3A] | 1.91 |
| FPYKLAFAYLEDLHSEFDEQHGKK [K3Y] | 1.74 |
| FPGKLAFAYLEDLHSEFDEQHGKK [K3G] | 2.29 |
| FPHKLAFAYLEDLHSEFDEQHGKK [K3H] | 1.17 |
| FPWKLAFAYLEDLHSEFDEQHGKK [K3W] | 1.96 |
| FPRKLAFAYLEDLHSEFDEQHGKK [K3R] | 2.42 |
| FPFKLAFAYLEDLHSEFDEQHGKK [K3F] | 1.91 |
| FPVKLAFAYLEDLHSEFDEQHGKK [K3V] | 2.53 |
| FPIKLAFAYLEDLHSEFDEQHGKK [K3I] | 2.17 |
| FPPKLAFAYLEDLHSEFDEQHGKK [K3P] | 3.08 |
| FPEKLAFAYLEDLHSEFDEQHGKK [K3E] | 2.95 |
| FPNKLAFAYLEDLHSEFDEQHGKK [K3N] | 2.23 |
| FPMKLAFAYLEDLHSEFDEQHGKK [K3M] | 2.2 |
| FPLKLAFAYLEDLHSEFDEQHGKK [K3L] | 2.79 |
| FPQKLAFAYLEDLHSEFDEQHGKK [K3Q] | 2.4 |
| FPDKLAFAYLEDLHSEFDEQHGKK [K3D] | 2.25 |
| FPTKLAFAYLEDLHSEFDEQHGKK [K3T] | 2.53 |
| FPCKLAFAYLEDLHSEFDEQHGKK [K3C] | 1.69 |

— the supplement of paper PMC10567573
